Among the data in paper PMC11228049 are Kd and stoichiometry N values, retold here.

The target in test [1] is untagged βarr2 (UniProt P29067). The experiment in a line: ITC; βarr1 (15 μM) or βarr2 (20 μM) in the sample cell, 400 μM Gβγ C68S in the syringe; 25 °C; 20 mM HEPES, 150 mM NaCl, 0.02% DDM, pH 7.4; an additional early binding site was excluded, the rest fitted to a one-site model.
The target is the same in test [2]. In words: ITC; βarr form in the sample cell, WT Gβγ in the syringe; 25 °C; 20 mM HEPES, 150 mM NaCl, 0.02% DDM, pH 7.4; one-site model. On the technique in general: ITC needs no label: the signal is the heat of the interaction.
The next test deals with βarr2 in excess V2Rpp (UniProt P29067). The test is described as above.

Sequence of UniProt P29067 (P29067 whole entry): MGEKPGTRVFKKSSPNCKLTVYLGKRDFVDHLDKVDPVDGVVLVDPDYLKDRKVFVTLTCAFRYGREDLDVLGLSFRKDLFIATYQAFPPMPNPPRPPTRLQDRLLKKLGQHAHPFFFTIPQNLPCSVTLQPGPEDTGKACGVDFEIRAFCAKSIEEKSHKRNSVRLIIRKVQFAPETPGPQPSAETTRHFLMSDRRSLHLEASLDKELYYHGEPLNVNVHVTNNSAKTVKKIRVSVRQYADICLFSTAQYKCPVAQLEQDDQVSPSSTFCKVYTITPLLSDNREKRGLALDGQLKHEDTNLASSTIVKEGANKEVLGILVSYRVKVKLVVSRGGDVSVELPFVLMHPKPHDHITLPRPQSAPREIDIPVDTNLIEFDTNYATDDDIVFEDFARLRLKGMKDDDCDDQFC

As a reminder, the Kd is the concentration at which binding is half-saturated. Read a low Kd as higher affinity. On to “Gβ1γ2 with a C68S mutation in Gγ2 (from UniProt P62873 1-340; P59768 1-71) (complex)”, for which the Kd with untagged βarr2 [1] was determined as 900 nM.
What is called stoichiometry N is a count of units in the complex or per binding partner. In the test with untagged βarr2 [2], “recombinant purified WT Gβ1γ2 (from UniProt P62873 1-340; P59768 1-71) (complex)” registered a dissociation constant Kd of 1500 nM and a stoichiometry N of 1 site. Further, in the test with βarr2 in excess V2Rpp, the Kd came to 1800 nM and the stoichiometry N was determined as 1 site.
